In article PMC10348674 (Science Advances, 2023):

How the values were obtained:
[1] = target: T1, Cul3NΔ22 (23-388, I342R, and L346D) (UniProt Q13618 23-388, I342R | L346D); experiment: pull-down
[2] = target: T1, Cul3NΔ22 (23-388, I342R, and L346D); experiment: cryo-EM structure
[3] = target: the molecule itself; experiment: cryo-EM structure

T1 sequence (Q13618 23-388 I342R/L346D): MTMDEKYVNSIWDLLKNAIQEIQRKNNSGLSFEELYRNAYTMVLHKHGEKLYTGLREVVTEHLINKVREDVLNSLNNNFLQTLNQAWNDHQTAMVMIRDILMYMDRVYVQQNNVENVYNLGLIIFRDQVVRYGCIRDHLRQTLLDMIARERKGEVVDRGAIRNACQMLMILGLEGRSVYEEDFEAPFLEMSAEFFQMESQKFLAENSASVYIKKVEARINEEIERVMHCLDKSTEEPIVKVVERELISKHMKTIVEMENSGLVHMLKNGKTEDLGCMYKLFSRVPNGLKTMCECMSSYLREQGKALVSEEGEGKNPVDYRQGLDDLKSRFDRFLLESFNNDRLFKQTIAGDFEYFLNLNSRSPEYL

Row | Binder | binding result [1] | binding result [2] | stoichiometry N [3]
1 | FLAG-tagged KCTD5 full-length (FL) (natural protein) MAENHCELLPPAPSGLGAGLGGGLCRRCSAGMGALAQRPGGVSKWVRLNVGGTYFLTTRQTLCRDPKSFLYRLCQADPDLDSDKDETGAYLIDRDPTYFGPVLNYLRHGKLVINKDLAEEGVLEEAEFYNITSLIKLVKDKIRERDSRISQMPVKHVYRVLQCQEEELTQMVSTMSDGWKFEQLVSIGSSYNYGNEDQAEFLCVVSKELHNTPYGTTSEPSEKAKILQERGSRM | binds |  | 
2 | FLAG-tagged KCTD5 E167A (natural protein) MAENHCELLPPAPSGLGAGLGGGLCRRCSAGMGALAQRPGGVSKWVRLNVGGTYFLTTRQTLCRDPKSFLYRLCQADPDLDSDKDETGAYLIDRDPTYFGPVLNYLRHGKLVINKDLAEEGVLEEAEFYNITSLIKLVKDKIRERDSRISQMPVKHVYRVLQCQEEALTQMVSTMSDGWKFEQLVSIGSSYNYGNEDQAEFLCVVSKELHNTPYGTTSEPSEKAKILQERGSRM | binds |  | 
3 | FLAG-tagged KCTD5 R159A (natural protein) MAENHCELLPPAPSGLGAGLGGGLCRRCSAGMGALAQRPGGVSKWVRLNVGGTYFLTTRQTLCRDPKSFLYRLCQADPDLDSDKDETGAYLIDRDPTYFGPVLNYLRHGKLVINKDLAEEGVLEEAEFYNITSLIKLVKDKIRERDSRISQMPVKHVYAVLQCQEEELTQMVSTMSDGWKFEQLVSIGSSYNYGNEDQAEFLCVVSKELHNTPYGTTSEPSEKAKILQERGSRM | binds |  | 
4 | FLAG-tagged KCTD5 W179A (natural protein) MAENHCELLPPAPSGLGAGLGGGLCRRCSAGMGALAQRPGGVSKWVRLNVGGTYFLTTRQTLCRDPKSFLYRLCQADPDLDSDKDETGAYLIDRDPTYFGPVLNYLRHGKLVINKDLAEEGVLEEAEFYNITSLIKLVKDKIRERDSRISQMPVKHVYRVLQCQEEELTQMVSTMSDGAKFEQLVSIGSSYNYGNEDQAEFLCVVSKELHNTPYGTTSEPSEKAKILQERGSRM | binds |  | 

More lines, main results first:

Row | binding result [1] | binding result [2] | Binder | stoichiometry N [3]
5 | binds |  | FLAG-tagged KCTD5 D93A (natural protein) MAENHCELLPPAPSGLGAGLGGGLCRRCSAGMGALAQRPGGVSKWVRLNVGGTYFLTTRQTLCRDPKSFLYRLCQADPDLDSDKDETGAYLIARDPTYFGPVLNYLRHGKLVINKDLAEEGVLEEAEFYNITSLIKLVKDKIRERDSRISQMPVKHVYRVLQCQEEELTQMVSTMSDGWKFEQLVSIGSSYNYGNEDQAEFLCVVSKELHNTPYGTTSEPSEKAKILQERGSRM | 
6 | binds |  | FLAG-tagged KCTD5 R72A (natural protein) MAENHCELLPPAPSGLGAGLGGGLCRRCSAGMGALAQRPGGVSKWVRLNVGGTYFLTTRQTLCRDPKSFLYALCQADPDLDSDKDETGAYLIDRDPTYFGPVLNYLRHGKLVINKDLAEEGVLEEAEFYNITSLIKLVKDKIRERDSRISQMPVKHVYRVLQCQEEELTQMVSTMSDGWKFEQLVSIGSSYNYGNEDQAEFLCVVSKELHNTPYGTTSEPSEKAKILQERGSRM | 
7 | binds |  | FLAG-tagged KCTD7 WT (E. coli, for pull-down) (natural protein) MVVVTGREPDSRHSDGAMSSSEAEDDFLEPATPTATQAGHGLPLLPQEFPEVVPLNIGGAHFTTRLSTLRRYEDTMLAAMFSGRHYIPTDSEGRYFIDRDGTHFGDVLNFLRSGDLPPREHVRAVHKEAQYYAIGPLLEQLENMQPLKGEKVRQAFLGLMPYYKDHLERIVEIARLRAVQRKARFAKLKVCVFKEEMPITPYECPLLNSLRFERSESDGQLFEHHCEVDVSFGPWEAVADVYDLLHCLVTDLSAQGLTVDHQCIGVCDKHLVNHYYCKRPIYEFKITWW | 
8 |  | binds | KCTD7 (Sf9, for the cryo-EM complex) (natural protein) MVVVTGREPDSRHSDGAMSSSEAEDDFLEPATPTATQAGHGLPLLPQEFPEVVPLNIGGAHFTTRLSTLRRYEDTMLAAMFSGRHYIPTDSEGRYFIDRDGTHFGDVLNFLRSGDLPPREHVRAVHKEAQYYAIGPLLEQLENMQPLKGEKVRQAFLGLMPYYKDHLERIVEIARLRAVQRKARFAKLKVCVFKEEMPITPYECPLLNSLRFERSESDGQLFEHHCEVDVSFGPWEAVADVYDLLHCLVTDLSAQGLTVDHQCIGVCDKHLVNHYYCKRPIYEFKITWW | 5
9 | binds |  | FLAG-tagged KCTD7 S67A (natural protein) MVVVTGREPDSRHSDGAMSSSEAEDDFLEPATPTATQAGHGLPLLPQEFPEVVPLNIGGAHFTTRLATLRRYEDTMLAAMFSGRHYIPTDSEGRYFIDRDGTHFGDVLNFLRSGDLPPREHVRAVHKEAQYYAIGPLLEQLENMQPLKGEKVRQAFLGLMPYYKDHLERIVEIARLRAVQRKARFAKLKVCVFKEEMPITPYECPLLNSLRFERSESDGQLFEHHCEVDVSFGPWEAVADVYDLLHCLVTDLSAQGLTVDHQCIGVCDKHLVNHYYCKRPIYEFKITWW | 
10 | binds |  | FLAG-tagged KCTD7 R65A (natural protein) MVVVTGREPDSRHSDGAMSSSEAEDDFLEPATPTATQAGHGLPLLPQEFPEVVPLNIGGAHFTTALSTLRRYEDTMLAAMFSGRHYIPTDSEGRYFIDRDGTHFGDVLNFLRSGDLPPREHVRAVHKEAQYYAIGPLLEQLENMQPLKGEKVRQAFLGLMPYYKDHLERIVEIARLRAVQRKARFAKLKVCVFKEEMPITPYECPLLNSLRFERSESDGQLFEHHCEVDVSFGPWEAVADVYDLLHCLVTDLSAQGLTVDHQCIGVCDKHLVNHYYCKRPIYEFKITWW | 
